Several values for one entry are separate records, joined by “and”; a condition that tells them apart may be missing. Identical values can stand only once.
Target: the molecule itself
Assay: SDS-PAGE with immunoblot (denaturing); denatured samples (SDS loading buffer, 5 min 95 °C) of the extracts made for BN-PAGE

B1: HIR2-HA (natural protein, Arabidopsis thaliana, UniProt Q9SRH6 1-285, looked up)
chain: MGNLFCCVLVKQSDVAVKERFGKFQKVLNPGLQFVPWVIGDYVAGTLTLRLQQLDVQCETKTKDNVFVTVVASIQYRVLADKASDAFYRLSNPTTQIKAYVFDVIRACVPKLNLDDVFEQKNEIAKSVEEELDKAMTAYGYEILQTLIIDIEPDQQVKRAMNEINAAARMRVAASEKAEAEKIIQIKRAEGEAESKYLSGLGIARQRQAIVDGLRDSVLGFAGNVPGTSAKDVLDMVMMTQYFDTMRDIGATSKSSAVFIPHGPGAVSDVAAQIRNGLLQANNAS
notes: HIR2, Arabidopsis thaliana; also called HA-tagged HIR2; source: Nicotiana benthamiana leaves, transient expression, total protein extract
- stoichiometry N: 2 and 4 and 6

Source: article PMC13534476, “The Arabidopsis SPFH protein HIR2 modulates receptor signaling and plasma membrane organization” (The EMBO Journal, 2026)
